US5763177, “Systematic evolution of ligands by exponential enrichment: photoselection of nucleic acid ligands and solution selex” (NeXstar Pharmaceuticals, Inc.)

What was measured:
HIV-1 Rev [1] = biological target: T1, HIV-1 Rev (Human immunodeficiency virus 1, UniProt P04618 P04618:1-116); assay: monophasic; crosslinks with and without laser, also at 50 nM Rev in human nuclear extract (FIG. 20); conditions: hairpin
Procedure: To test for the ability of trunc24 (SEQ ID NO:59) to discriminate HIV-1 Rev in a complex mixture, trunc24 and 10 µg of human fibroblast nuclear extract together with decreasing amounts of HIV-1 Rev (FIG. 20). At 50 nM Rev and a 1:100 weight ratio of Rev to nuclear extract, it was possible to see a very significant crosslinked product between trunc24 and Rev.

HIV-2 Rev [2] = biological target: T2, HIV-2 Rev (Human immunodeficiency virus 2, UniProt P04615 P04615:1-100); assay: photocrosslinks (data not shown); no laser-independent crosslink (FIG. 19); conditions: hairpin
T2 sequence: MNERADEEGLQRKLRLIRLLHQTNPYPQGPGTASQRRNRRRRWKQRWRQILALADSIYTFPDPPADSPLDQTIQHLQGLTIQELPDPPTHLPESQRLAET

[3] = biological target: T3, R17 bacteriophage coat protein (Bacteriophage R17, UniProt P69170 P69170:1-129); assay: photocrosslinking at 308 nm 5 min, 6.75 nM RNA, 120 nM protein; conditions: tags: purified from R17 phage propagated in E. coli S26; chain copies: 2; hairpin
Procedure: RNA-7 (SEQ ID NO:4) (FIG. 11) was prepared using methodology as reported in Example 1 using a plasmid instead of a DNA template. The photocrosslinking was performed as described in Example 3. A 4 ml reaction mixture consisting of 6.75 nM RNA and 120 nM R17 coat protein was irradiated, 2 ml at a time, at 308 nm with unfocused emission from a XeCl excimer laser. The laser produced 50 mJ/pulse and was operated at 10 Hz. The reaction proceeded to near quantitative crosslinking, 85–90%, in 5 min of irradiation. After crosslinking, 1 ml of the total reaction mixture was removed; EDTA (80 mM), SDS (0.1%), and CaCl_2 (0.1 mM) were added; the free (unbound) RNA present was purified away; and the protein digested with Proteinase K at 60° C. for 30 min. The RNA bound to residual protein was ethanol precipitated to remove salts and spun to a pellet. The pellet was washed three times with 70% ethanol to remove any residual salts. A reverse transcription reaction was employed to make a complementary DNA copy of the RNA template. A 13-base […] was annealed to the RNA and the reverse transcription reaction was performed under the standard conditions of the manufacturer, Gibco (Gaithersburg, Md.), and was stopped after 1 hr. […] No stop in the 31 nucleotide region of the gel appeared; this established that the reverse transcriptase had read through the position of the crosslink. […]

[4] = biological target: T3, R17 bacteriophage coat protein; assay: filter; value only in figure; TMK buffer 10 mM Mg acetate, 80 mM KCl, 100 mM Tris pH 8.5, 4 C; crosslinks max about 40% at 308 nm; conditions: tags: purified from R17 phage propagated in E. coli S26; chain copies: 2; label: 32P; hairpin
Procedure: (§1) RNA-protein binding curves for hairpin variants RNA1 (SEQ ID NO:1), RNA-2 (SEQ ID NO:2) and RNA-3 (SEQ ID NO:3) to the bacteriophage R17 coat protein are shown in FIG. 7. The association constants between coat protein and the RNA hairpin variants were determined with a nitrocellulose filter retention assay described by Carey and co-workers (Carey et al. (1983) supra). A constant, low-concentration of ^32p-labeled RNA was mixed with a series of coat protein concentrations between 0.06 nM and 1 µM in 10 mM magnesium acetate, 80 mM KCL, 80 Ag/ml BSA, and 100 mM Tris-HCl (pH 8.5 at 4° C.) (TMK buffer). These were the same solution conditions used in the crosslinking experiments. After incubation at 4° C. for 45–60 min, the mixture was filtered through a nitrocellulose filter and the amount of complex retained on the filter determined by liquid scintillation counting.
^32P-Labeled RNA sequences RNA-1 (SEQ ID NO:1) and RNA-2 (SEQ ID NO:2) (5 nM) and R17 coat protein (120 nM) were each incubated on ice in 100 mM Tris-HCl (pH 8.5 at 4° C.), 80 mM KCl, 10 mM magnesium acetate, […] of BSA for 15–25 min before irradiations. These are conditions under which the RNA is fully bound to the coat protein. […] Crosslinked RNA was separated from uncrosslinked RNA by PAGE, and the yields were determined by autoradiography.

HIV-1 Rev [5] = biological target: T1, HIV-1 Rev; assay: monophasic; laser-dependent crosslinking at 325 nm; conditions: hairpin
Description: (§2) The sequences are aligned for maximum homology to the 6a sequence (SEQ ID NO:5). Underlines represent potential base pairing as indicted by computer RNA folding algorithms. Dashed underlines represent the 6a ligand "bubble" motif. Sequences flanked by underline represent either loop or bulge regions. Dashes are placed to maximize alignment with 6a. * denotes that two isolates were obtained. +indicates laser independent crosslinking and—denotes the lack of laser independent crosslinking to HIV-1 Rev. […] FIGS. 18 and 19 show the sequence of Trunc2 (SEQ ID NO:58) and Trunc24 (SEQ ID NO:59) and the specificity results. 500 nM protein, 20 µg tRNA, and approximately 1 nM of kinased trunc2 RNA were incubated for 10 min. at 37° C. and irradiated for 4 min at 325 nm. t2-trunc2 RNA irradiated without added protein; t2Rev1/0'-trunc2 RNA, HIV-1 Rev protein and 0 min. of irradiation; t2/Rev1/4'-trunc2 RNA, HIV-1 Rev protein, adn 4 min. of irradiation; t2/Rev1/4'/ PK-trunc2 RNA, HIV1 Rev protein, 4 min. or irradiation, and proteinase K treated as in FIG. 1; t2/Rev2/4'-trunc2 RNA, HIV-2 Rev protein, and 4 min. of irradiation; t2/Tat/ 4'-trunc2 RNA, HIV-1 Tat protein, and 4 min. of irradiation. R-free RNA; XL-crosslinked nucleoprotein complex.

HIV-2 Rev [6] = biological target: T2, HIV-2 Rev; assay: photocrosslinking 325 nm 4 min, 500 nM protein, 20 ug tRNA, 37 C; conditions: hairpin
Description: as §2

[7] = biological target: T3, R17 bacteriophage coat protein; assay: filter; value only in figure; TMK buffer 10 mM Mg acetate, 80 mM KCl, 100 mM Tris pH 8.5, 4 C; near-quantitative crosslinking at 325 nm; conditions: tags: purified from R17 phage propagated in E. coli S26; chain copies: 2; label: 32P; hairpin
[8] = biological target: T3, R17 bacteriophage coat protein; assay: filter; value only in figure; TMK buffer 10 mM Mg acetate, 80 mM KCl, 100 mM Tris pH 8.5, 4 C; conditions: tags: purified from R17 phage propagated in E. coli S26; chain copies: 2; label: 32P; hairpin
Procedure: as §1

T3 sequence (P69170 whole entry, one chain of several): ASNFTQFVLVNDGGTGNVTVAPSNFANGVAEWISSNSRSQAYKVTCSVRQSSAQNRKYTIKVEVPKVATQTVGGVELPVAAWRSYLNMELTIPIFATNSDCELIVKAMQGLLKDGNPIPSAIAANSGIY
T1 sequence (P04618 whole entry, one chain of several): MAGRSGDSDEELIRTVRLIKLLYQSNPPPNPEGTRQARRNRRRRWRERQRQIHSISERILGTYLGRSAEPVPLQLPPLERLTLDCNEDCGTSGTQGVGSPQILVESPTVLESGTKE

GGGGAUUAACAGGCACACCUGUUAACCCU (ssRNA, 5-iodouracil in place of all U) [trunc24]
Kd (HIV-1 Rev [1]): 0.02 µM | binding result (HIV-2 Rev [2]): binds

GAACAUGAGGAUUACCCAUGAAUUCGAGCUCGCCCGGGCUCUAG (ssRNA, 5-iodouracil in place of U) [RNA-7]
binding result [3]: binds

GGGAGCGAGCAAUAGCCGC (ssRNA, 5-bromouracil in place of U) [RNA-1]
binding result [4]: binds

GGGUGUAUGAAACACCACGUGUGUUUCCACUC (ssRNA, 5-iodouracil in place of all U) [trunc2]
Kd (HIV-1 Rev [5]): 0.0005 µM | binding result (HIV-2 Rev [6]): binds

GGGAGCGAGCAAUAGCCGC (ssRNA, 5-iodouracil in place of U) [RNA-2]
binding result [7]: binds

GGGAGCGAGCAAUAGCCGC (ssRNA) [RNA-3]
binding result [8]: binds
